The target in assay [1] is T1, human Nectin-4 extracellular antigen hNectin-4-His (human, UniProt Q96NY8 32-349).
T1 construct: C-terminal 8xHis tag included
T1 sequence: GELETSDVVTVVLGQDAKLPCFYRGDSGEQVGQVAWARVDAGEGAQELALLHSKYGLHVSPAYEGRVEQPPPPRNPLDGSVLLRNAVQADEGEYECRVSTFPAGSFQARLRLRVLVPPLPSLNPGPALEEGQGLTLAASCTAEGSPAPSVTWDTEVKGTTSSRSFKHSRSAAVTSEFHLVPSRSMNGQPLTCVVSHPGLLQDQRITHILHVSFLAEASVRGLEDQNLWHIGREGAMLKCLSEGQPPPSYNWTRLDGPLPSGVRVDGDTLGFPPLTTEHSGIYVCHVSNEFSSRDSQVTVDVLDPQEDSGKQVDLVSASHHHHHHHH
The assay is described as follows: ELISA, coated hNectin-4-His. From the text:
The binding activity of the antibodies was detected by ELISA.
A general note: ELISA stands for enzyme-linked immunosorbent assay.

Assay [2] deals with T1, human Nectin-4 extracellular antigen …. Nature of the assay: SPR, antibody on Protein A chip, 1:1 fit. An excerpt:
In this study, the affinity of the antibodies for the human Nectin-4 extracellular antigen was detected by surface plasmon resonance (SPR) technique (BIAcore: GE Healthcare, T200).
(SPR reads the build-up and loss of mass on a sensor chip optically.)

Broadly, the EC50 is the concentration giving half of the maximal effect. A low value points to higher potency in that assay. For orientation: Kd means the free concentration of one partner at which half of the binding sites on the other are occupied at equilibrium, for simple one-to-one binding. The koff is the first-order rate constant of dissociation. The low end stands for a long-lived complex, the high end for a short-lived complex. The kon is the second-order rate constant of association.

B1: antibody 1G8-1C10 (antibody, human IgG1, kappa, V domains shown)
VH: EVQLVESGGGLVQPGGSLRLSCAASGFNFSDYSMSWVRQAPGKGLEWVSRIKASSGGSDYADSVKGRFTISRDNSKNTLYLQMNSLRAEDTAVYYCARQTEDRSYGYDLDYWGQGTLVTVSS
VL: DIQMTQSPSSLSASVGDRVTITCRASQGISSYLAWYQQKPGKAPKLLIYAASSLQSGVPSRFSGSGSGTDFTLTISSLQPEDFATYYCQQHYTTPPTFGQGTKVEIKR
For the molecule B1, the EC50 in assay [1] worked out at 5 ng/mL.

B2: antibody 1F3-1F4 (antibody, human IgG1, kappa, V domains shown)
VH: EVQLVESGGGLVQPGGSLRLSCAASGDIFTGSSMSWVRQAPGKGLEWVSGIYASGSDKRYADSVKGRFTISRDNSKNTLYLQMNSLRAEDTAVYYCARAELLAFDVYTASDYWGQGTLVTVSS
VL: DIQMTQSPSSLSASVGDRVTITCRASQGISSYLAWYQQKPGKAPKLLIYAASSLQSGVPSRFSGSGSGTDFTLTISSLQPEDFATYYCQQHYTTPPTFGQGTKVEIKR
With B2, the EC50 in assay [1] was 9 ng/mL.

B3: antibody 1G8-1G3 (antibody, human IgG1, kappa, V domains shown)
VH: EVQLVESGGGLVQPGGSLRLSCAASGFNFGTYAMSWVRQAPGKGLEWVSRISGISAGTNYADSVKGRFTISRDNSKNTLYLQMNSLRAEDTAVYYCARQTEDRSYGYDLDYWGQGTLVTVSS
VL: DIQMTQSPSSLSASVGDRVTITCRASQGISSYLAWYQQKPGKAPKLLIYAASSLQSGVPSRFSGSGSGTDFTLTISSLQPEDFATYYCQQHYTTPPTFGQGTKVEIKR
Turning to B3, a half-maximal response in assay [1] (EC50) required 4 ng/mL. In assay [2], the dissociation constant (Kd) came to 3 nM, the off-rate constant (koff) is 0.00141 s⁻¹ and the kon was found to be 471000 M⁻¹ s⁻¹.

B4: antibody 1G8-2F11 (antibody, human IgG1, kappa, V domains shown)
VH: EVQLVESGGGLVQPGGSLRLSCAASGYTFGSNAMSWVRQAPGKGLEWVSRISPDSSGISYADSVKGRFTISRDNSKNTLYLQMNSLRAEDTAVYYCARQTEDRSYGYDLDYWGQGTLVTVSS
VL: DIQMTQSPSSLSASVGDRVTITCRASQGISSYLAWYQQKPGKAPKLLIYAASSLQSGVPSRFSGSGSGTDFTLTISSLQPEDFATYYCQQHYTTPPTFGQGTKVEIKR
The molecule B4 registered an EC50 in assay [1] of 4 ng/mL.

B5: antibody 1F3-1D12 (antibody, human IgG1, kappa, V domains shown)
VH: EVQLVESGGGLVQPGGSLRLSCAASGYNFTDYGMSWVRQAPGKGLEWVSGISGSGDNKYYADSVKGRFTISRDNSKNTLYLQMNSLRAEDTAVYYCARAELLAFDVYTASDYWGQGTLVTVSS
VL: DIQMTQSPSSLSASVGDRVTITCRASQGISSYLAWYQQKPGKAPKLLIYAASSLQSGVPSRFSGSGSGTDFTLTISSLQPEDFATYYCQQHYTTPPTFGQGTKVEIKR
In assay [1], B5 displayed a concentration giving a half-maximal response (EC50) of 7 ng/mL.

B6: antibody 1G8-1E10 (antibody, human IgG1, kappa, V domains shown)
VH: EVQLVESGGGLVQPGGSLRLSCAASGDSFSTYAMSWVRQAPGKGLEWVSRISGSGDGKDYADSVKGRFTISRDNSKNTLYLQMNSLRAEDTAVYYCARQTEDRSYGYDLDYWGQGTLVTVSS
VL: DIQMTQSPSSLSASVGDRVTITCRASQGISSYLAWYQQKPGKAPKLLIYAASSLQSGVPSRFSGSGSGTDFTLTISSLQPEDFATYYCQQHYTTPPTFGQGTKVEIKR
B6 registered a half-maximal effective concentration (EC50) in assay [1] of 6 ng/mL. In assay [2], the Kd worked out at 1.31 nM, the dissociation rate constant (koff) stood at 0.00087 s⁻¹ and the kon turned out to be 665000 M⁻¹ s⁻¹.

B7: antibody 1G8-2H8 (antibody, human IgG1, kappa, V domains shown)
VH: EVQLVESGGGLVQPGGSLRLSCAASGDIFGSYAMSWVRQAPGKGLEWVSAISGSGGSTYYADSVKGRFTISRDNSKNTLYLQMNSLRAEDTAVYYCARQTEDRSYGYDLDYWGQGTLVTVSS
VL: DIQMTQSPSSLSASVGDRVTITCRASQGISSYLAWYQQKPGKAPKLLIYAASSLQSGVPSRFSGSGSGTDFTLTISSLQPEDFATYYCQQHYTTPPTFGQGTKVEIKR
As for B7, the response in assay [1] was half-maximal at 5 ng/mL (EC50).

B8: antibody 1F3-1F8 (antibody, human IgG1, kappa, V domains shown)
VH: EVQLVESGGGLVQPGGSLRLSCAASGFNFGNYGMSWVRQAPGKGLEWVSRISGDGSNINYADSVKGRFTISRDNSKNTLYLQMNSLRAEDTAVYYCARAELLAFDVYTASDYWGQGTLVTVSS
VL: DIQMTQSPSSLSASVGDRVTITCRASQGISSYLAWYQQKPGKAPKLLIYAASSLQSGVPSRFSGSGSGTDFTLTISSLQPEDFATYYCQQHYTTPPTFGQGTKVEIKR
B8 yielded a concentration for a half-maximal effect (EC50) in assay [1] of 8 ng/mL. Further, in assay [2], the Kd came to 0.564 nM, the dissociation rate constant (koff) was found to be 0.000966 s⁻¹ and the kon amounted to 1.71e+06 M⁻¹ s⁻¹.

B9: antibody 1F3-1A9 (antibody, human IgG1, kappa, V domains shown)
VH: EVQLVESGGGLVQPGGSLRLSCAASGYSFDNYAMSWVRQAPGKGLEWVSRISPTGGYASYADSVKGRFTISRDNSKNTLYLQMNSLRAEDTAVYYCARAELLAFDVYTASDYWGQGTLVTVSS
VL: DIQMTQSPSSLSASVGDRVTITCRASQGISSYLAWYQQKPGKAPKLLIYAASSLQSGVPSRFSGSGSGTDFTLTISSLQPEDFATYYCQQHYTTPPTFGQGTKVEIKR
B9 gave an EC50 in assay [1] of 7 ng/mL. For the same molecule, in assay [2], the Kd turned out to be 0.641 nM, the dissociation rate constant (koff) was determined as 0.000994 s⁻¹ and the kon worked out at 1.55e+06 M⁻¹ s⁻¹.

B10: antibody 1F3-1C4 (antibody, human IgG1, kappa, V domains shown)
VH: EVQLVESGGGLVQPGGSLRLSCAASGFTFGDYGMSWVRQAPGKGLEWVSGIKPWGSGTYYADSVKGRFTISRDNSKNTLYLQMNSLRAEDTAVYYCARAELLAFDVYTASDYWGQGTLVTVSS
VL: DIQMTQSPSSLSASVGDRVTITCRASQGISSYLAWYQQKPGKAPKLLIYAASSLQSGVPSRFSGSGSGTDFTLTISSLQPEDFATYYCQQHYTTPPTFGQGTKVEIKR
On to B10, for which a half-maximal response in assay [1] (EC50) required 11 ng/mL.

B11: antibody 1G8-2G8 (antibody, human IgG1, kappa, V domains shown)
VH: EVQLVESGGGLVQPGGSLRLSCAASGFNFTNYAMSWVRQAPGKGLEWVSRISTYGDTTHYADSVKGRFTISRDNSKNTLYLQMNSLRAEDTAVYYCARQTEDRSYGYDLDYWGQGTLVTVSS
VL: DIQMTQSPSSLSASVGDRVTITCRASQGISSYLAWYQQKPGKAPKLLIYAASSLQSGVPSRFSGSGSGTDFTLTISSLQPEDFATYYCQQHYTTPPTFGQGTKVEIKR
B11: the EC50 in assay [1] was 6 ng/mL. In assay [2], the Kd is 1.87 nM, the off-rate (koff) worked out at 0.00142 s⁻¹ and the on-rate (kon) was 758000 M⁻¹ s⁻¹.

B12: antibody 1G8-2H4 (antibody, human IgG1, kappa, V domains shown)
VH: EVQLVESGGGLVQPGGSLRLSCAASGDSFTGYAMSWVRQAPGKGLEWVSAISGSGGSTYYADSVKGRFTISRDNSKNTLYLQMNSLRAEDTAVYYCARQTEDRSYGYDLDYWGQGTLVTVSS
VL: DIQMTQSPSSLSASVGDRVTITCRASQGISSYLAWYQQKPGKAPKLLIYAASSLQSGVPSRFSGSGSGTDFTLTISSLQPEDFATYYCQQHYTTPPTFGQGTKVEIKR
Molecule B12 yielded an EC50 in assay [1] of 39 ng/mL.

B13: antibody 1G8-2C6 (antibody, human IgG1, kappa, V domains shown)
VH: EVQLVESGGGLVQPGGSLRLSCAASGDNFSSYAMSWVRQAPGKGLEWVSRIYGSDSTPDYADSVKGRFTISRDNSKNTLYLQMNSLRAEDTAVYYCARQTEDRSYGYDLDYWGQGTLVTVSS
VL: DIQMTQSPSSLSASVGDRVTITCRASQGISSYLAWYQQKPGKAPKLLIYAASSLQSGVPSRFSGSGSGTDFTLTISSLQPEDFATYYCQQHYTTPPTFGQGTKVEIKR
B13 gave a concentration for a half-maximal effect (EC50) in assay [1] of 5 ng/mL. For the same molecule, in assay [2], binding was put at a Kd of 1.87 nM, the koff is 0.00137 s⁻¹ and the kon was 734000 M⁻¹ s⁻¹.

B14: antibody 1F3-2D2 (antibody, human IgG1, kappa, V domains shown)
VH: EVQLVESGGGLVQPGGSLRLSCAASGFNFSSYGMSWVRQAPGKGLEWVSRISPYTGTTHYADSVKGRFTISRDNSKNTLYLQMNSLRAEDTAVYYCARAELLAFDVYTASDYWGQGTLVTVSS
VL: DIQMTQSPSSLSASVGDRVTITCRASQGISSYLAWYQQKPGKAPKLLIYAASSLQSGVPSRFSGSGSGTDFTLTISSLQPEDFATYYCQQHYTTPPTFGQGTKVEIKR
Consider B14, for which, in assay [1], the EC50 came out at 15 ng/mL.

B15: antibody 1F3-1G7 (antibody, human IgG1, kappa, V domains shown)
VH: EVQLVESGGGLVQPGGSLRLSCAASGDIFSNYSMSWVRQAPGKGLEWVSGIYPSGDSRRYADSVKGRFTISRDNSKNTLYLQMNSLRAEDTAVYYCARAELLAFDVYTASDYWGQGTLVTVSS
VL: DIQMTQSPSSLSASVGDRVTITCRASQGISSYLAWYQQKPGKAPKLLIYAASSLQSGVPSRFSGSGSGTDFTLTISSLQPEDFATYYCQQHYTTPPTFGQGTKVEIKR
B15 displayed an EC50 in assay [1] of 8 ng/mL. In assay [2], this molecule gave a dissociation constant Kd of 0.743 nM, an off-rate (koff) of 0.000596 s⁻¹ and a kon of 802000 M⁻¹ s⁻¹.

B16: antibody 1G8-2F2 (antibody, human IgG1, kappa, V domains shown)
VH: EVQLVESGGGLVQPGGSLRLSCAASGDIFGSYAMSWVRQAPGKGLEWVSRISSHGASRDYADSVKGRFTISRDNSKNTLYLQMNSLRAEDTAVYYCARQTEDRSYGYDLDYWGQGTLVTVSS
VL: DIQMTQSPSSLSASVGDRVTITCRASQGISSYLAWYQQKPGKAPKLLIYAASSLQSGVPSRFSGSGSGTDFTLTISSLQPEDFATYYCQQHYTTPPTFGQGTKVEIKR
In the case of B16, the EC50 in assay [1] was determined as 12 ng/mL. In assay [2], this molecule returned a Kd of 2.12 nM, a koff of 0.00166 s⁻¹ and a kon of 784000 M⁻¹ s⁻¹.

B17: antibody 1F3-1E4 (antibody, human IgG1, kappa, V domains shown)
VH: EVQLVESGGGLVQPGGSLRLSCAASGFSFGTYGMSWVRQAPGKGLEWVSRISGDSANIRYADSVKGRFTISRDNSKNTLYLQMNSLRAEDTAVYYCARAELLAFDVYTASDYWGQGTLVTVSS
VL: DIQMTQSPSSLSASVGDRVTITCRASQGISSYLAWYQQKPGKAPKLLIYAASSLQSGVPSRFSGSGSGTDFTLTISSLQPEDFATYYCQQHYTTPPTFGQGTKVEIKR
With B17, in assay [2], the dissociation constant (Kd) amounted to 0.426 nM, the koff stood at 0.000825 s⁻¹ and the association rate constant (kon) was 1.94e+06 M⁻¹ s⁻¹.

Values taken from patent US20260144882A1 (BIO THERA SOLUTIONS, published 2026).
